B1: Bacillus subtilis glutamine synthetase (enzyme, B. subtilis)
chain: MAKYTREDIEKLVKEENVKYIRLQFTDILGTIKNVEIPVSQLGKALDNKVMFDGSSIEGFVRIEESDMYLYPDLNTFVIFPWTAEKGKVARFICDIYNPDGTPFEGDPRNNLKRILKEMEDLGFSDFNLGPEPEFFLFKLDEKGEPTLELNDKGGYFDLAPTDLGENCRRDIVLELEEMGFEIEASHHEVAPGQHEIDFKYAGAVRSCDDIQTFKLVVKTIARKHGLHATFMPKPLFGVNGSGMHCNLSLFKNGVNAFFDENADLQLSETAKHFIAGIVKHATSFTAVTNPTVNSYKRLVPGYEAPCYVAWSAQNRSPLIRIPASRGISTRVEVRSVDPAANPYLALSVLLAAGLDGIKNKLEAPAPIDRNIYVMSKEERMENGIVDLPATLAEALEEFKSNEVMVKALGEHLFEHFIEAKEIEWDMFRTQVHPWEREQYMSQY
notes: glutamine synthetase (GS, class GSI-alpha) of B. subtilis; gene bought from Genscript, in pET15b; Dodecamer as apo protein; tetradecamer (14 copies) in the complexes with TnrA, GlnR and the GlnR C-tail peptide; The His-tag was removed only for crystallography; also called Bs GS; source: E. coli C41(DE3), purified (cobalt NTA); copies: 12

Values joined by “and” are separate entries in the source; they are usually repeats but may differ in a detail not shown here. Identical values can stand only once. Where no end group is shown, it is not given here.

Data set [1] has as its target Listeria monocytogenes glutamine synthetase (L. monocytogenes). Description: cryo-EM structure; apo GS without peptide, 0.9-1.0 mg/mL, exchanged into Buffer B.
The target of data set [2] is fluoresceinated Lm GlnR C-tail peptide (L. monocytogenes). Description: fluorescence polarisation; FBI-GS against the corresponding fluoresceinated GlnR C-tail; 25 mM Tris pH 7.5, 100 mM NaCl, 5 mM MgCl2, 20 mM glutamine; three technical repeats. On the technique in general: In fluorescence polarisation assays a small probe gives low polarisation when free and higher when bound to something large.

In data set [3] the target is Listeria monocytogenes glutamine synthetase (L. monocytogenes). Put plainly: cryo-EM structure; GS (0.75-1.0 mg/mL) with 2.5 or 5 mM GlnR C-tail peptide, 30 min at rt; Buffer B (12.5 mM Tris pH 7.5, 20 mM glutamine, 5 mM MgCl2, 150 mM NaCl, 2.5% glycerol, 1 mM BME).
Data set [4] concerns the target Paenibacillus polymyxa glutamine synthetase (P. polymyxa). Put plainly: cryo-EM structure; apo GS without peptide, 0.9-1.0 mg/mL, exchanged into Buffer B.
In data set [5] the target is fluoresceinated Pp GlnR C-tail peptide (P. polymyxa). Put plainly: fluorescence polarisation; FBI-GS against the corresponding fluoresceinated GlnR C-tail; 25 mM Tris pH 7.5, 100 mM NaCl, 5 mM MgCl2, 20 mM glutamine; three technical repeats.
Data set [6] deals with Paenibacillus polymyxa glutamine synthetase (P. polymyxa). Description: cryo-EM structure; GS (0.75-1.0 mg/mL) with 2.5 or 5 mM GlnR C-tail peptide, 30 min at rt; Buffer B (12.5 mM Tris pH 7.5, 20 mM glutamine, 5 mM MgCl2, 150 mM NaCl, 2.5% glycerol, 1 mM BME).
Data set [7] has as its target Sa GlnR(1-87), His-tag removed (crystallography) (S. aureus) (UniProt Q53687). Put plainly: crystal structure; GlnR(1-87) with a 21-mer operator DNA (protein:DNA 1:1.5); GlnR dimer on the DNA.
Data set [8] deals with Staphylococcus aureus glutamine synthetase, His-tag removed (crystallography) (S. aureus). Description: crystal structure; GS reacted with 5 mM MgCl2, 5 mM ATP and 5 mM Met-Sox (Met-Sox-P-ADP transition state complex); hanging drop, rt.
Data set [9] addresses Paenibacillus polymyxa glutamine synthetase, His-tag removed (crystallography) (P. polymyxa). Described as above.
For data set [10], the target named is Staphylococcus aureus glutamine synthetase (S. aureus). Description: cryo-EM structure; apo GS without peptide, 0.9-1.0 mg/mL, exchanged into Buffer B.
Data set [11] has as its target fluoresceinated Sa GlnR C-tail peptide (S. aureus). Put plainly: fluorescence polarisation; FBI-GS against the corresponding fluoresceinated GlnR C-tail; 25 mM Tris pH 7.5, 100 mM NaCl, 5 mM MgCl2, 20 mM glutamine; three technical repeats.
Data set [12] has as its target Staphylococcus aureus glutamine synthetase (S. aureus). Put plainly: cryo-EM structure; GS (0.75-1.0 mg/mL) with 2.5 or 5 mM GlnR C-tail peptide, 30 min at rt; Buffer B (12.5 mM Tris pH 7.5, 20 mM glutamine, 5 mM MgCl2, 150 mM NaCl, 2.5% glycerol, 1 mM BME).
The target of data set [13] is Listeria monocytogenes glutamine synthetase, His-tag removed (crystallography) (L. monocytogenes). Description: crystal structure; GS reacted with 5 mM MgCl2, 5 mM ATP and 5 mM Met-Sox (Met-Sox-P-ADP transition state complex); hanging drop, rt.
Data set [14] concerns the target T1, Pp GS (Paenibacillus polymyxa, UniProt A0A0F0G8G2).
T1 construct: gene glnA2; full-length, synthetic gene in pET15b, N-terminal His-tag (removed by thrombin for crystallography), E. coli C41(DE3)
T1 sequence (A0A0F0G8G2 1-442): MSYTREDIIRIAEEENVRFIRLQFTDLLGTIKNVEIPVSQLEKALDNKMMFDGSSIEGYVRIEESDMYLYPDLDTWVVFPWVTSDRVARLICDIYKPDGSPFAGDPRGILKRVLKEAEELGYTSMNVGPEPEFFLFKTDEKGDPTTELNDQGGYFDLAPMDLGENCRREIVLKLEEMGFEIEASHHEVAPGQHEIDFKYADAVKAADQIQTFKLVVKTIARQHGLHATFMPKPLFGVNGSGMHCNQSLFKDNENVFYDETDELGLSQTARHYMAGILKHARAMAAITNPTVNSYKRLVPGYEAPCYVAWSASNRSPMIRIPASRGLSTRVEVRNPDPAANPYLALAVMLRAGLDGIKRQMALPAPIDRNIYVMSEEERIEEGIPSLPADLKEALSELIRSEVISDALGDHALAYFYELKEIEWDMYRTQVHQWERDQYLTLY
Put plainly: X-ray crystal structure […] Å. Format: binding. Particulars: formed in situ from 5 mM ATP and 5 mM Met-Sox with 5 mM MgCl2; with Met-Sox-P.

Data set [15] concerns the molecule itself. Put plainly: cryo-EM structure; GS (0.75-1.0 mg/mL) with 2.5 or 5 mM GlnR C-tail peptide, 30 min at rt; Buffer B (12.5 mM Tris pH 7.5, 20 mM glutamine, 5 mM MgCl2, 150 mM NaCl, 2.5% glycerol, 1 mM BME).
Data set [16] deals with fluoresceinated Bs GlnR C-tail peptide (B. subtilis). Put plainly: fluorescence polarisation; FBI-GS against the corresponding fluoresceinated GlnR C-tail; 25 mM Tris pH 7.5, 100 mM NaCl, 5 mM MgCl2, 20 mM glutamine; three technical repeats.
Data set [17] deals with the molecule itself. Put plainly: negative stain EM; apo Bs GS alone; 25 mM Tris pH 7.5, 200 mM NaCl, 5% glycerol, 1 mM MgCl2; 20-50 μg/mL; 2D class averages.
Data set [18] addresses B1. Put plainly: cryo-EM structure; GS (0.75-1.0 mg/mL) with 2.5 or 5 mM GlnR C-tail peptide, 30 min at rt; Buffer B (12.5 mM Tris pH 7.5, 20 mM glutamine, 5 mM MgCl2, 150 mM NaCl, 2.5% glycerol, 1 mM BME). As to conditions: both partners purified.
The target of data set [19] is T2, Sa GlnR(1-87) (S. aureus, UniProt Q53687 1-87).
T2 chain: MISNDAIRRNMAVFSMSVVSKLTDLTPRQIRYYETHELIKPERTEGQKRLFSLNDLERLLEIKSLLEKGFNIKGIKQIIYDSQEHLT
Put plainly: FP.

Data set [20] addresses B1. Put plainly: negative stain EM; Bs GS mixed 1:1 with FL TnrA; 25 mM Tris pH 7.5, 200 mM NaCl, 5% glycerol, 1 mM MgCl2, 5 mM glutamine; 2D class averages. Particulars: both partners purified.
Data set [21] deals with the molecule itself. Put plainly: crystal structure; GlnR(1-87) with a 21-mer operator DNA (protein:DNA 1:1.5); GlnR dimer on the DNA.

A word on the stoichiometry N: it is a count of units in the complex or per binding partner. The Kd is a measure of binding affinity in units of concentration.

In the case of “Listeria monocytogenes glutamine synthetase (enzyme)”, the stoichiometry N turned out to be 12 in data set [1] and 14 in [3]. In [2], the Kd worked out at 27.2 µM.
For “Paenibacillus polymyxa glutamine synthetase (enzyme)”, the stoichiometry N in data set [4] was 12 and 14; in [6], 14 and 12. In addition, the Kd in [5] was 18.7 µM.
“Sa GlnR(1-87), His-tag removed (crystallography) (from UniProt Q53687 1-87) (domain or fragment)” showed a stoichiometry N in [7] of 2.
As to “Staphylococcus aureus glutamine synthetase, His-tag removed (crystallography) (enzyme)”, in data set [8], the stoichiometry N was determined as 12.
In the case of “Paenibacillus polymyxa glutamine synthetase, His-tag removed (crystallography) (enzyme)”, the stoichiometry N in data set [9] stood at 12.
Regarding “Staphylococcus aureus glutamine synthetase (enzyme)”, the stoichiometry N in data set [10] and in data set [12] was 12 in each case. In [11], the Kd worked out at 7.2 µM.
The molecule “Listeria monocytogenes glutamine synthetase, His-tag removed (crystallography) (enzyme)” yielded a stoichiometry N in data set [13] of 12.
Take `Nc1ncnc2c1ncn2[C@@H]1O[C@H](COP(=O)(O)OP(=O)(O)O)[C@@H](O)[C@H]1O` [ADP]: the “X-ray crystal structure 1.98 Å” value in [14] is “densities for Met-Sox-P and ADP were clearly observed in each enzyme”.
In the case of B1, the “stoichiometry N” value in data set [15] amounted to 14; in data set [17], 12. The molecule further came in with a Kd in data set [16] of 4.2 µM.

B2: Bs GlnR C-tail peptide (peptide)
peptide: MQAGRFQRGNTFRQGDMSRFFH
notes: C-tail residues of GlnR of B. subtilis; also called Bs GlnR peptide; source: synthetic peptide, bought: Genscript
As for B2, the binding result in [18] is “binds”.
fluorescein-KPIGETLPINRGDLSRFIK [fluoresceinated Sa GlnR C-tail peptide] came in with a Kd in data set [19] of 56 µM.

B3: Bacillus subtilis TnrA, full length (natural protein, B. subtilis, UniProt Q45666 1-110, looked up)
chain: MTTEDHSYKDKKVISIGIVSELTGLSVRQIRYYEERKLIYPQRSSRGTRKYSFADVERLMDIANKREDGVQTAEILKDMRKKEQMLKNDPQVRKKMLEGQLNAHFRYKNR
notes: TnrA transcription regulator (MerR-like) of B. subtilis; Its production is not described here; also called FL TnrA; Bs TnrA
B3: in [20], the binding result is “binds”.

B4: Lm GlnR(1-87), His-tag removed (crystallography) (domain or fragment, L. monocytogenes, UniProt L8DSZ4 1-87, looked up)
chain: MSEKEIRRSMPLFPIGPVMKLTDLTARQIRYYEDQGLIHPARNQGNHRLYSLQDIDVLLEIKDYLNDGLNIAGIKKMYQMQQKESKE
notes: GlnR of L. monocytogenes (122 residues), residues 1-87; Dimer on the 21 bp operator DNA, generated by crystallographic symmetry; also called Lm GlnR-DNA complex; source: E. coli C41(DE3), purified (cobalt NTA, thrombin digestion, Ni-NTA); not shown: His-tag, N-terminal, cleaved
On to B4, for which, in [21], the “stoichiometry N” value came to 2.

These data come from paper PMC9249791, “Molecular dissection of the glutamine synthetase-GlnR nitrogen regulatory circuitry in Gram-positive bacteria” (Nature Communications, 2022).
